For this assay, the target named is T1, r-Antidote (two-chain polypeptide, SEQ ID NO: 3); processed product of the precursor SEQ ID NO: 2 after … (human, UniProt P00742 80-179); P00742 235-488, in certain production batches: glycosylation at Thr249; in certain production batches: glycosylation at Ser56, Ser72, Ser76 and Thr82; (3R)-3-hydroxyAsp at Asp29).
T1 construct: Light and heavy chain are joined by a disulfide bond, Cys98 of the light chain to Cys108 of the heavy chain; also called fXa antidote; fXa derivative
In words: affinity chromatography with immobilised STI ligand (Example 2). Here is the method:
An affinity chromatograph was developed for high-volume extraction of the antidote. The affinity ligand included Kunitz trypsin inhibitor (21 kDa; pI=4.5) extracted from whole soybean or flour. The soybean trypsin inhibitor (STI) forms 1:1 complex with the antidote. A non-competitive inhibitor elution condition was identified for scalability and compatibility, which included 25 mM Na-acetate, 1M Arginine, at pH 5.2.
Affinity column chromatography was performed using Capto STI resin at ambient temperature. During the load phase, the product bound to the resin while contaminants flew through. The product was recovered by disrupting protein interactions with a high concentration of arginine in the elution buffer. Prior to use, the column was rinsed with water for injection (WFI), cleaned with 100 mM Phosphoric Acid pH 3.0, and rinsed with WFI. The column was initially pre-equilibrated with pre-equilibration buffer (20 mM Tris-HCl, pH 7.4), then equilibrated with equilibration buffer (20 mM Tris-HCl, 200 mM NaCl, pH 7.4), and once the pH and conductivity of the column were within specification, it was loaded with Triton-X 100 treated clarified harvest (HCCF). Each cycle of HCCF material was transferred from its viral inactivation hold tank directly to the column.

From patent publication US20210348149A1 (Alexion, published 2021) come the findings set out here.

T1 sequence (P00742 other isoform, or with tags, fused parts or gaps limits assumed, chain 1 of 2): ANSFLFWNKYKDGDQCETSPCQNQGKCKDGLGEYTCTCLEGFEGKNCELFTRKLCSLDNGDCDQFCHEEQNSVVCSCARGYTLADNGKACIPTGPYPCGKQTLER
T1 sequence (P00742 235-488 S419A limits assumed, chain 2 of 2): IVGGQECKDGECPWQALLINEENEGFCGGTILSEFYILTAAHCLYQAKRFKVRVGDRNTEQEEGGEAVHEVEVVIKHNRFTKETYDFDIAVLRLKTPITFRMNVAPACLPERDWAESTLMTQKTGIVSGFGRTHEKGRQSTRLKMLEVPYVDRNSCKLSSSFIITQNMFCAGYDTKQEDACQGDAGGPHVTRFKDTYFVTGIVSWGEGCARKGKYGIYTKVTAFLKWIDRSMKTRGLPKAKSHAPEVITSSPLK

B1: soybean trypsin inhibitor (STI), Kunitz trypsin inhibitor (21 kDa; pI=4.5) extracted from whole soybean or flour (other, soybean (Glycine max), UniProt P01070 25-205, looked up)
chain: DFVLDNEGNPLENGGTYYILSDITAFGGIRAAPTGNERCPLTVVQSRNELDKGIGTIISSPYRIRFIAEGHPLSLKFDSFAVIMLCVGIPTEWSVVEDLPEGPAVKIGENKDAMDGWFRLERVSDDEFNNYKLVFCPQQAEDDKCGDIGISIDHDDGTRRLVVSKNKPLVVQFQKLDKESL
notes: also called STI ligand
For the molecule B1, the binding result is “binds”.
